Results from publication PMC8632972.

What was measured:
SCG5 tagged with cYFP [1] = molecular target: SCG5 tagged with cYFP (UniProt P27682); assay: PLA; settings: n = 4 independent experiments, n = 8 independent images quantified; parent: est. 100; read off a plot
CPE tagged with cYFP = CPE tagged with cYFP (UniProt P15087); assay: BiFC quantified by flow cytometry; settings: n = 5 independent experiments; parent: est. 100; read off a plot
NPY tagged with cYFP = NPY tagged with cYFP (UniProt P07808); assay: BiFC quantified by flow cytometry; settings: n = 5 independent experiments; parent: est. 100; read off a plot
[2] = molecular target: proinsulin tagged with C-terminal segment of YFP (cYFP) (UniProt P01322); assay: BiFC quantified by flow cytometry; settings: n = 5 independent experiments; parent: est. 100; read off a plot
Sequence of UniProt P01322 (P01322 25-110): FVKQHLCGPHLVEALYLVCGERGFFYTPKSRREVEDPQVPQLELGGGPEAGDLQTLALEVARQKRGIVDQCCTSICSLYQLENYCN

SCG5 tagged with cYFP [3] = molecular target: SCG5 tagged with cYFP (UniProt P27682); assay: BiFC quantified by flow cytometry; settings: n = 5 independent experiments; parent: est. 100; read off a plot
SEC24A tagged with Myc = assay: PLA; settings: n = 3 independent experiments, n = 8 independent images quantified; parent: est. 4.5; read off a plot

Sequence of UniProt P27682 (P27682 25-210): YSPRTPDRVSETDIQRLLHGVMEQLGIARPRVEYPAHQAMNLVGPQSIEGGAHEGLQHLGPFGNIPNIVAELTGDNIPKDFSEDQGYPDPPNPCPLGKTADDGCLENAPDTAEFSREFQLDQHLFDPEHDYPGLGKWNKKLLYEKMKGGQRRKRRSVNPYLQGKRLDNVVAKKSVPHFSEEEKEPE
Sequence of UniProt P15087 (P15087 28-476): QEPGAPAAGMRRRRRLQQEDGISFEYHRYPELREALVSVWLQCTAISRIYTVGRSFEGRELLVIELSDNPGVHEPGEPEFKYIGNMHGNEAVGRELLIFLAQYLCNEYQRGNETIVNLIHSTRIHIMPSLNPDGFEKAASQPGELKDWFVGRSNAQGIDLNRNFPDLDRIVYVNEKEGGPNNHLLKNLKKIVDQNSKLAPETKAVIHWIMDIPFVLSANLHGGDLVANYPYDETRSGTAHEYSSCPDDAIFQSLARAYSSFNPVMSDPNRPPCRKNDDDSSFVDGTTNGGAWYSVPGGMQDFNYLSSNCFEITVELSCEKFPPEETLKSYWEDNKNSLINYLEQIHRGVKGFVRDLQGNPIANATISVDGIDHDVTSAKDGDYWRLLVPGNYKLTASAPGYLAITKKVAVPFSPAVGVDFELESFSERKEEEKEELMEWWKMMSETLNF

response (puncta (>1µm2) per cell) (SCG5 tagged with cYFP [1]) | percent of parent (CPE tagged with cYFP) [%] | percent of parent (NPY tagged with cYFP) [%] | percent of parent [2] [%] | percent of parent (SCG5 tagged with cYFP [3]) [%] | response (puncta (>1µm2) per cell) (SEC24A tagged with Myc) | Substance
7 |  |  |  |  |  | HA-tagged WFS1 E830A
35 |  |  |  |  |  | HA-tagged WFS1 G695V
 | 46 | 41 | 70 | 71 |  | WFS1 tagged with N-terminal segment of YFP (nYFP) E809K
 |  |  |  |  | 0.13 | HA-tagged WFS1 E169K
 | 2 | 3 | 23 | 8 |  | WFS1 tagged with N-terminal segment of YFP (nYFP) E830A
55 |  |  |  |  |  | HA-tagged WFS1 P724L
 |  |  |  |  | 0.13 | HA-tagged WFS1 E158K
 | 41 | 33 | 42 | 56 |  | WFS1 tagged with N-terminal segment of YFP (nYFP) G695V
 | 71 | 49 | 61 | 54 |  | WFS1 tagged with N-terminal segment of YFP (nYFP) P724L
56 |  |  |  |  |  | HA-tagged WFS1 E809K
